Assays:
platelet count [1] = assay: Test for daily administration to rabbit (platelet count); format: in vivo; details: rabbits, 200 μg/kg subcutaneous daily
Experimental: Test for Daily Administration to Rabbit
Six 12-15 week old male Japanese albino rabbits JW/CSK were used in the experiment. The animals were individually kept in aluminum rabbit bracket cages Rb-1 (350^w×500^d×350^h mm) in a vavarium in a specific pathogen-free environment under the following conditions: temperature, 24±2° C.; humidity, 50±10%; illumination, light turned on at 5:00 and turned off at 19:00; ventilation, 15 changes/hr. Each animal was supplied with 120 g of a radiation-sterilized feed for rabbits RM (purchased from Funahashi Farm) per day. The animals were also allowed to drink to tap water ad libitum from an automatic water feeder.
Human PTH(1-84) was administered in a volume of 2 mL/vial at a concentration of 200 μg/mL. A solvent was also supplied in a volume of 2 mL/vial. Both the drug and the control were stored at −135° C. until use.
PTH (200 μg/kg) was administered to the rabbits subcutaneously at the back of their neck for 13 consecutive days. The solvent was similarly administered in the same volume as the dose of a rh-PTH solution calculated from their body weight.
Blood samples (0.5 mL) were withdrawn from the rabbits through the lateral auricular vein before the administration and on days 2, 6, 9 and 13 during the administration period. […]

platelet counts = assay: Test for single-dose administration to mouse (peripheral platelet count); format: in vivo; details: C57B1/6N mice, single dose 10 μg/kg through the tail vein, 6 and 9 h after the administration
Experimental: Test for Single-dose Administration to Mouse
Nine-week old male C57B1/6N mice as purchased from Japan Charles River Co. Ltd. were used in the experiment.
Human PTH(1-84) was dissolved in a citrate buffer (pH 5; containing 0.05% of Tween 80) at final concentrations of 1, 0.2 and 0.04 ˜g/mL so as to prepare the drug solutions to be administered.
Each of the thus prepared drug solutions and a control (citrate buffer) was administered to 15 mice through the tail vein in a volume of 10 mL/kg. […] The administration was initiated at 10 a.m.
After 3, 6 and 9 hours of the administration, five mice were picked up at random from each group of animals and blood samples were withdrawn through the orbital vein. At 10 a.m. on the same day, separate blood samples were taken from untreated mice (four in number) to obtain the preadministration value. Peripheral corpuscle counts were obtained with an automatic corpuscle counter F-800 (TOA MEDICAL ELECTRONICS CO., LTD.)

[2] = tested on: BFU-E (precursor cells of erythrocytes); details: cited from earlier work
[3] = tested on: CFU-GM (precursor cells of granulocytes and macrophages); details: cited from earlier work
platelet count [4] = assay: Test for daily administration to mouse (peripheral platelet count); format: in vivo; details: C57B1/6N mice, subcutaneous once a day
Experimental: Test for Daily Administration to Mouse
Nine-week old male C57B1/6N mice as purchased from Japan Charles River Co., Ltd. were used in the experiment.
Drug solutions to be administered were prepared basically by the same procedure as in Example 1 to give drug concentrations of 5, 20 and 80 μg/mL.
The mice under test were divided into four groups, which were administered subcutaneously with the three drug solutions and a control (citrate buffer) once a day in a volume of 10 mL/kg. […] The administration was initiated at 10 a.m.
On days 5, 7 and 9 after the start of administration, five or six mice were picked up at random from each group of animals and blood samples were withdrawn through the orbital vein. The sampling of blood was timed to occur 24 h of the final administration. Separate blood samples were taken from untreated mice (five in number) to obtain the value for normal mouse. Peripheral corpuscle counts were obtained with an automatic corpuscle counter F-800(TOA MEDICAL ELECTRONICS CO., LTD.).

B1: human PTH(1-84) (protein, UniProt P01270 32-115, looked up)
Parathyroid hormone: SVSEIQLMHNLGKHLNSMERVEWLRKKLQDVHNFVALGAPLAPRDAGSQRPRKKEDNVLVESHEKSLGEADKADVNVLTKAKSQ
modifications: Parathyroid hormone
platelet count relative to the initial level (platelet count [1]; day 13): substantially returned to the initial level
platelet count relative to the initial value (platelet count [1]; increase from day 2 until day 6): two to four times as great as the initial value
platelet counts versus control (platelet counts): significant increase in platelet counts over the control
in vitro colony formation by BFU-E [2]: interfered with
in vitro colony formation by CFU-GM [3]: interfered with
platelet count versus control (platelet count [4]; all treated groups (50, 200 and 800 μg/kg), day 7): significantly higher in platelet count than the control
platelet count versus control (platelet count [4]; groups administered 200 and 800 μg/kg, day 5): tendency to increase

— US6956022B2, “Agents for preventing and treating thrombocytopenia” (Chugai Seiyaku Kabushiki Kaisha, priority 1996, dated 2005)
